Reference: patent publication US20250066503A1, “CELL INJURY INDUCING THERAPEUTIC DRUG FOR USE IN CANCER THERAPY” (CHUGAI SEIYAKU KABUSHIKI KAISHA, priority 2016, published 2025)
Changes are numbered by the printed parent chain.

B1: TR01H082-E22Hh/none-Hi-Kn010G3/L0264-k0 (antibody, V domains shown)
VH: QVQLVESGGGLVQPGRSLRLSCAASGFTFSNAWMHWVRQAPGKGLEWVAQIKDKSQNYATYYAESVKGRFTISRDDSKNSLYLQMNSLKTEDTAVYYCRYVHYAAGYGVDAWGQGTTVTVSS
VL: DIVMTQSPLSLPVTPGEPASISCRPSQSPVHSNRNTYLHWYQQKPGQAPRLLIYKVSNRFSGVPDRFSGSGSGTDFTLKISRVEAEDVGVYYCAQGTQVPYTFGQGTKLEIK
notes: one-arm
B2: TR01H062-E22Hh/none-Hi-Kn010G3/L0000-k0 (antibody, V domains shown)
VH: B1 VH with D75A, L81I, G106S
VL: DIVMTQSPLSLPVTPGEPASISCRSSQSLVHSNRNTYLHWYQQKPGQAPRLLIYKVSNRFSGVPDRFSGSGSGTDFTLKISRVEAEDVGVYYCGQGTQVPYTFGQGTKLEIKR
notes: one-arm
B3: CE115HA180-G1dh//-Hi-Kn010G3/L0000-k0 (antibody, V domains shown)
VH: B1 VH with L11V, D53A, Q56N, D75A, A104G, G106Y, D110Q
VL: B2 VL
notes: one-arm
B4: TR01H018-E22Hh/none-Hi-Kn010G3/L0000-k0 (antibody)
VH: B1 VH with R16G, D53G, Q56N, D75A, L81I, A104S, G106S, A111I
light: DIVMTQSPLSLPVTPGEPASISCRSSQSLVHSNRNTYLHWYQQKPGQAPRLLIYKVSNRFSGVPDRFSGSGSGTDFTLKISRVEAEDVGVYYCGQGTQVPYTFGQGTKLEIKRTVAAPSVFIFPPSDEQLKSGTASVVCLLNNFYPREAKVQWKVDNALQSGNSQESVTEQDSKDSTYSLSSTLTLSKADYEKHKVYACEVTHQGLSSPVTKSFNRGEC
notes: one-arm
B5: TR01H082-E22Hh/none-Hi-Kn010G3/TR01L018-k0 (antibody, V domains shown)
VH: B1 VH
VL: B1 VL with R24Q, P25A, Q27E, Q42L, A48S, R50Q, A94G
notes: one-arm
B6: TR01H009-E22Hh/none-Hi-Kn010G3/L0000-k0 (antibody, V domains shown)
VH: B1 VH with D53A, Q56N, E64P, D75A, L81I, A104G, G106Y, A111I
VL: B2 VL
notes: one-arm
B7: TR01H084-E22Hh/none-Hi-Kn010G3/L0271-k0 (antibody, V domains shown)
VH: B1 VH with L11V, R16G, D75A, L81I, A111I
VL: B1 VL with P25S, S28P, N35Q, A94G
notes: one-arm
B8: TR01H025-E22Hh/none-Hi-Kn010G3/L0000-k0 (antibody, V domains shown)
VH: B1 VH with D53S, D75A, L81I, A104S, G106S, A111I
VL: B2 VL
notes: one-arm
B9: TR01H082-E22Hh/none-Hi-Kn010G3/L0272-k0 (antibody, V domains shown)
VH: B1 VH
VL: B1 VL with P25S, S28P, P29L, N35Q, A94G
notes: one-arm
B10: TR01H012-E22Hh/none-Hi-Kn010G3/L0000-k0 (antibody, V domains shown)
VH: B1 VH with D53A, Q56N, D75A, L81I, A104Y, A105Y, G106S, A111I
VL: B2 VL
notes: one-arm
B11: CE115HA252-E22Hh//-Hi-Kn010G3/L0000-k0 (antibody, V domains shown)
VH: B1 VH with L11V, D53A, Q56N, A59K, T60K, A104Y, A105Y, G106Y
VL: B2 VL
notes: one-arm
B12: TR01H010-E22Hh/none-Hi-Kn010G3/L0000-k0 (antibody, V domains shown)
VH: B1 VH with D53A, Q56N, D75A, L81I, A104S, G106Y, A111I
VL: B2 VL
notes: one-arm
B13: TR01H082-E22Hh/none-Hi-Kn010G3/TR01L017-k0 (antibody, V domains shown)
VH: B1 VH
VL: B1 VL with P25S, L38I, H39Q, Q42L, A48S, R50Q, A94Y
notes: one-arm
B14: TR01H083-E22Hh/none-Hi-Kn010G3/L0262-k0 (antibody, V domains shown)
VH: B1 VH with Q56N, D75A, L81I, A111I
VL: B1 VL with P25S, S28P
notes: one-arm
B15: TR01H014-E22Hh/none-Hi-Kn010G3/L0000-k0 (antibody, V domains shown)
VH: B1 VH with D53G, Q56N, E64P, D75A, L81I, A104G, G106Y, A111I
VL: B2 VL
notes: one-arm
B16: TR01H013-E22Hh/none-Hi-Kn010G3/L0000-k0 (antibody, V domains shown)
VH: B1 VH with D53G, D75A, L81I, A104G, G106Y, A111I
VL: B2 VL
notes: one-arm
B17: TR01H003-E22Hh//-Hi-Kn010G3/L0000-k0 (antibody, V domains shown)
VH: B1 VH with L11V, D53A, Q56N, Y100R, A104G, G106Y
VL: B2 VL
notes: one-arm
B18: TR01H084-E22Hh/none-Hi-Kn010G3/L0272-k0 (antibody, V domains shown)
VH: B1 VH with L11V, R16G, D75A, L81I, A111I
VL: B1 VL with P25S, S28P, P29L, N35Q, A94G
notes: one-arm
B19: TR01H023-E22Hh/none-Hi-Kn010G3/L0000-k0 (antibody, V domains shown)
VH: B1 VH with R16G, D53G, D75A, L81I, A104S, G106S, A111I
VL: B2 VL
notes: one-arm
B20: TR01H007-E22Hh/none-Hi-Kn010G3/L0000-k0 (antibody, V domains shown)
VH: B1 VH with D53S, Q56N, D75A, L81I, A104G, G106Y, A111I
VL: B2 VL
notes: one-arm
B21: CE115HA178-G1dh//-Hi-Kn010G3/L0000-k0 (antibody, V domains shown)
VH: B1 VH with D53A, Q56N, L81I, A104G, G106Y, D110Q
VL: B2 VL
notes: one-arm
B22: CE115HA179-G1dh//-Hi-Kn010G3/L0000-k0 (antibody, V domains shown)
VH: B1 VH with D53A, Q56N, D75A, L81I, A104G, G106Y, D110Q
VL: B2 VL
notes: one-arm
B23: TR01H020-E22Hh/none-Hi-Kn010G3/L0000-k0 (antibody, V domains shown)
VH: B1 VH with D53G, Q56N, E64P, D75A, L81I, A104S, G106S, A111I
VL: B2 VL
notes: one-arm
B24: CE115HA124-E22Hh//-Hi-Kn010G3/L0000-k0 (antibody, V domains shown)
VH: B1 VH with L11V, D53A, K54L, Q56N, A104G, G106Y
VL: B2 VL
notes: one-arm
B25: TR01H084-E22Hh/none-Hi-Kn010G3/L0262-k0 (antibody, V domains shown)
VH: B1 VH with L11V, R16G, D75A, L81I, A111I
VL: B1 VL with P25S, S28P
notes: one-arm
B26: TR01H017-E22Hh/none-Hi-Kn010G3/L0000-k0 (antibody, V domains shown)
VH: B1 VH with R16G, D53A, Q56N, D75A, L81I, A104G, G106Y, A111I
VL: B2 VL
notes: one-arm
B27: TR01H084-E22Hh/none-Hi-Kn010G3/L0270-k0 (antibody, V domains shown)
VH: B1 VH with L11V, R16G, D75A, L81I, A111I
VL: B1 VL with P25S, P29L, N35Q, A94G
notes: one-arm
B28: CE115HA192-E22Hh//-Hi-Kn010G3/L0000-k0 (antibody, V domains shown)
VH: B1 VH with L11V, D53A, Q56N, A104Y, G106Y
VL: B2 VL
notes: one-arm
B29: TR01H008-E22Hh/none-Hi-Kn010G3/L0000-k0 (antibody, V domains shown)
VH: B1 VH with D53G, Q56N, D75A, L81I, A104G, G106Y, A111I
VL: B2 VL
notes: one-arm
B30: TR01H006-E22Hh/none-Hi-Kn010G3/L0000-k0 (antibody, V domains shown)
VH: B1 VH with D53A, D75A, L81I, A104G, G106Y, A111I
VL: B2 VL
notes: one-arm
B31: TR01H082-E22Hh/none-Hi-Kn010G3/TR01L023-k0 (antibody, V domains shown)
VH: B1 VH
VL: B1 VL with P25S, Q42L, A48S, R50Q, A94T
notes: one-arm
B32: TR01H082-E22Hh/none-Hi-Kn010G3/L0271-k0 (antibody, V domains shown)
VH: B1 VH
VL: B1 VL with P25S, S28P, N35Q, A94G
notes: one-arm
B33: CE115HA177-G1dh//-Hi-Kn010G3/L0000-k0 (antibody, V domains shown)
VH: B1 VH with D53A, Q56N, D75A, L81I, A104G, G106Y
VL: B2 VL
notes: one-arm
B34: TR01H082-E22Hh/none-Hi-Kn010G3/L0267-k0 (antibody, V domains shown)
VH: B1 VH
VL: B1 VL with A94V
notes: one-arm
B35: TR01H019-E22Hh/none-Hi-Kn010G3/L0000-k0 (antibody, V domains shown)
VH: B1 VH with D53G, D75A, L81I, A104S, G106S, A111I
VL: B2 VL
notes: one-arm
B36: TR01H026-E22Hh/none-Hi-Kn010G3/L0000-k0 (antibody, V domains shown)
VH: B1 VH with R16G, D53S, D75A, L81I, A104S, G106S, A111I
VL: B2 VL
notes: one-arm
B37: TR01H004-E22Hh//-Hi-Kn010G3/L0000-k0 (antibody, V domains shown)
VH: B1 VH with L11V, D53A, Q56N, Y100R, A104Y, A105Y, G106Y
VL: B2 VL
notes: one-arm; also called TR01H004-E22Hh//-Hi-Kn010G3/10000-ko
B38: TR01H082-E22Hh/none-Hi-Kn010G3/L0266-k0 (antibody, V domains shown)
VH: B1 VH
VL: B1 VL with P25S, S28P, A94V
notes: one-arm
B39: TR01H016-E22Hh/none-Hi-Kn010G3/L0000-k0 (antibody, V domains shown)
VH: B1 VH with D53G, Q56N, D75A, L81I, A104S, A105Y, G106S, A111I
VL: B2 VL
notes: one-arm
B40: TR01H022-E22Hh/none-Hi-Kn010G3/L0000-k0 (antibody, V domains shown)
VH: B1 VH with R16G, D53G, E64P, D75A, L81I, A104S, G106S, A111I
VL: B2 VL
notes: one-arm
B41: TR01H024-E22Hh/none-Hi-Kn010G3/L0000-k0 (antibody, V domains shown)
VH: B1 VH with R16G, D53G, D75A, L81I, A104S, G106S
VL: B2 VL
notes: one-arm
B42: TR01H011-E22Hh/none-Hi-Kn010G3/L0000-k0 (antibody, V domains shown)
VH: B1 VH with D53A, Q56N, D75A, L81I, A104G, G106S, A111I
VL: B2 VL
notes: one-arm
B43: TR01H021-E22Hh/none-Hi-Kn010G3/L0000-k0 (antibody, V domains shown)
VH: B1 VH with D53G, Q56N, D75A, L81I, A104S, G106S
VL: B2 VL
notes: one-arm
B44: TR01H082-E22Hh/none-Hi-Kn010G3/L0270-k0 (antibody, V domains shown)
VH: B1 VH
VL: B1 VL with P25S, P29L, N35Q, A94G
notes: one-arm
B45: CE115HA121-E22Hh/-Hi-Kn010G3/L0000-k0 (antibody, V domains shown)
VH: B1 VH with L11V, Q50L, D53A, Q56N, A104G, G106Y
VL: B2 VL
notes: one-arm
B46: TR01H082-E22Hh/none-Hi-Kn010G3/L0268-k0 (antibody, V domains shown)
VH: B1 VH
VL: B1 VL with P25S, L38I, H39Q, A94V
notes: one-arm

What follows are binders tested against T1, soluble human CD3 epsilon chain (human, UniProt P07766 23-126) (assay: SPR).
T1 construct: also called CD3ε
T1 sequence (P07766 23-126 limits assumed): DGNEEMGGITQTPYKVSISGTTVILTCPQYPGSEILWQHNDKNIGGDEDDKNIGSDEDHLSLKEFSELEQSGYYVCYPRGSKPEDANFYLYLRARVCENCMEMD

Row | Kd | Binder
1 | 34.4 nM | B1
2 | 31.3 nM | B2
3 | 16.8 nM | B3
4 | 69.3 nM | B4
5 | 47.2 nM | B5
6 | 31.5 nM | B6
7 | 27.6 nM | B7
8 | 38.6 nM | B8
9 | 74.4 nM | B9
10 | 7.94 nM | B10
11 | 9.48 nM | B11
12 | 37.3 nM | B12
13 | 109 nM | B13
14 | 2.45 nM | B14
15 | 38.7 nM | B15
16 | 49.4 nM | B16
17 | 40.3 nM | B17
18 | 31 nM | B18
19 | 79.4 nM | B19
20 | 21.7 nM | B20
21 | 10.9 nM | B21
22 | 8.35 nM | B22
23 | 64.8 nM | B23

Row | Kd | Binder
24 | 143 nM | B24
25 | 8.51 nM | B25
26 | 35 nM | B26
27 | 27.6 nM | B27
28 | 50.5 nM | B28
29 | 42.2 nM | B29
30 | 23 nM | B30
31 | 42.5 nM | B31
32 | 68.2 nM | B32
33 | 35.5 nM | B33
34 | 22.9 nM | B34
35 | 68.5 nM | B35
36 | 51.2 nM | B36
37 | 135 nM | B37
38 | 22.9 nM | B38
39 | 36.9 nM | B39
40 | 75.8 nM | B40
41 | 108 nM | B41
42 | 37.1 nM | B42
43 | 80.5 nM | B43
44 | 74.2 nM | B44
45 | 67.6 nM | B45
46 | 136 nM | B46
